Measured values: PMC7614001 (2022)
Values joined by “and” are separate entries in the source; they are usually repeats but may differ in a detail not shown here. Equal values may be shown once. Values belong to the binder of their own block, whether it stands above or below them.

Legend:
ALK6 ECD = biological target: T1, ALK6 ECD (Homo sapiens, UniProt O00238); assay: BLI
T1 chain: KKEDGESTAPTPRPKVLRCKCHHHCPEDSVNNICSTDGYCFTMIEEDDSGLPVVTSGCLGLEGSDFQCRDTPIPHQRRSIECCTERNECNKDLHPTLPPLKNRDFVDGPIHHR

ALK1 ECD [1] = biological target: T2, ALK1 ECD (Homo sapiens, UniProt P37023); assay: BLI
ALK5 ECD = biological target: T3, ALK5 ECD (Homo sapiens, UniProt P36897); assay: BLI
T3 chain: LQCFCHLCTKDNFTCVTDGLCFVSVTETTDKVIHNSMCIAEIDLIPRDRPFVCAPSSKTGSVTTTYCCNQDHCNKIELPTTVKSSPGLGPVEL

BMPR-II ECD = biological target: T4, BMPR-II ECD (Homo sapiens, UniProt Q13873); assay: BLI
T4 chain: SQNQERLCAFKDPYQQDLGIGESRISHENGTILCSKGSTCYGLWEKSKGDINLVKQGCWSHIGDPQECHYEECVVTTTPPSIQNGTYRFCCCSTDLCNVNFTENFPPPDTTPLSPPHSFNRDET

ACTR-IIA ECD = ACTR-IIA ECD (Homo sapiens, UniProt P27037); assay: BLI
ACTR-IIB ECD = biological target: T5, ACTR-IIB ECD (Homo sapiens, UniProt Q13705); assay: BLI
T5 chain: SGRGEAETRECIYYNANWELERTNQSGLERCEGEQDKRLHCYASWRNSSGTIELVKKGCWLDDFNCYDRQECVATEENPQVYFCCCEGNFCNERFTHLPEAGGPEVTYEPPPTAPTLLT

ALK3 ECD = biological target: T6, ALK3 ECD (Homo sapiens, UniProt P36894); assay: BLI
T6 chain: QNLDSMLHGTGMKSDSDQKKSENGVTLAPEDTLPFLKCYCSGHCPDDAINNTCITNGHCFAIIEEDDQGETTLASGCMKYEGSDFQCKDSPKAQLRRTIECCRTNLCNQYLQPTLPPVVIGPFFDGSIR

ALK1 ECD [2] = biological target: T2, ALK1 ECD; assay: SPR
ALK2/BMPR-II ECD = biological target: T7, ALK2/BMPR-II ECD (Homo sapiens, UniProt Q04771); assay: BLI
T7 chain 1: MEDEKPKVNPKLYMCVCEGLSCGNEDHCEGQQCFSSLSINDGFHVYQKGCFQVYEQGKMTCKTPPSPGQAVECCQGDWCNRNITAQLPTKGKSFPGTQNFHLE
T7 chain 2: T4 chain

ALK2 ECD = biological target: T8, ALK2 ECD (Homo sapiens, UniProt Q04771); assay: BLI
T8 chain: T7 chain 1

ALK2/ACTR-IIB ECD = biological target: T9, ALK2/ACTR-IIB ECD (Homo sapiens, UniProt Q04771); assay: BLI
T9 chain 1: T7 chain 1
T9 chain 2: T5 chain

Sequence of ACTR-IIA ECD (P27037 20-135): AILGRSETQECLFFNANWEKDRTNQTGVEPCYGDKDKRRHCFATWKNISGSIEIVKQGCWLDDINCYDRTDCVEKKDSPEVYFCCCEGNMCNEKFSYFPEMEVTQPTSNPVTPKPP
T2 sequence (P37023 22-118): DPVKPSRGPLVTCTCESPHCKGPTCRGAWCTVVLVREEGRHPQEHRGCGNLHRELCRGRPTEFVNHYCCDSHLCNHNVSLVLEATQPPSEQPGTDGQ

B2: BMP-2 (protein)
chain: QAKHKQRKRLKSSCKRHPLYVDFSDVGWNDWIVAPPGYHAFYCHGECPFPLADHLNSTNHAIVQTLVNSVNSKIPKACCVPTELSAISMLYLDENEKVVLKNYQDMVVEGCGCR
Kd (ALK6 ECD): 0.5 nM | Kd (ALK1 ECD [1]): 13 nM | Kd (ALK3 ECD): 0.21 nM | Kd (ALK5 ECD): 5.8 nM | Kd (BMPR-II ECD): 5.4 nM

B3: BMP-9 (protein)
chain: SAGAGSHCQKTSLRVNFEDIGWDSWIIAPKEYEAYECKGGCFFPLADDVTPTKHAIVQTLVHLKFPTKVGKACCVPTKLSPISVLYKDDMGVPTLKYHYEGMSVAECGCR
Kd (ALK1 ECD [2]): 0.0134 nM | Kd (ALK1 ECD [1]): 0.2 nM | Kd (ALK5 ECD): 51 nM | Kd (BMPR-II ECD): 0.8 nM | Kd (ACTR-IIA ECD): 1.7 nM | Kd (ACTR-IIB ECD): 1.4 nM

Continued by falling Kd (ALK1 ECD [1]), values first:

Kd (ALK6 ECD): 3.1 nM | Kd (ALK1 ECD [1]): 55.4 nM | Kd (ALK2/BMPR-II ECD): 55.8 nM and 90.7 nM | Kd (ALK2 ECD): 10.5 nM | Kd (ALK5 ECD): 21.9 nM | Kd (BMPR-II ECD): 56 nM | Kd (ACTR-IIA ECD): 21.4 nM | Kd (ALK2/ACTR-IIB ECD): 103 nM and 88.7 nM | Kd (ACTR-IIB ECD): 26 nM
B4: BMP-4 (protein)
chain: SPKHHSQRARKKNKNCRRHSLYVDFSDVGWNDWIVAPPGYQAFYCHGDCPFPLADHLNSTNHAIVQTLVNSVNSSIPKACCVPTELSAISMLYLDEYDKVVLKNYQEMVVEGCGCR

Kd (ALK6 ECD): 15 nM | Kd (ALK1 ECD [1]): 23.1 nM | Kd (ALK5 ECD): 22.6 nM | Kd (BMPR-II ECD): 5.5 nM | Kd (ACTR-IIA ECD): 1.3 nM | Kd (ACTR-IIB ECD): 7.1 nM
B1: BMP-7 (protein)
chain: STGSKQRSQNRSKTPKNQEALRMANVAENSSSDQRQACKKHELYVSFRDLGWQDWIIAPEGYAAYYCEGECAFPLNSYMNATNHAIVQTLVHFINPETVPKPCCAPTQLNAISVLYFDDSSNVILKKYRNMVVRACGCH
